Measurements: paper PMC7924616

Target: Gorilla bocavirus 1 (GBoV1) VP3, assembled as virus-like particles (VP3-only capsids) (Gorilla bocavirus 1)
Test: cryo-EM structure; purified GBoV1 VLPs (wild-type and VP3-only) in 1x PBS vitrified on holey carbon grids; Titan Krios 300 kV; cisTEM reconstruction with imposed icosahedral symmetry; 2.76 Å

Gorilla bocavirus 1 (GBoV1) VP3, assembled as virus-like particles (VP3-only capsids) (natural protein)
stoichiometry N: 60
